Measurements published in patent US20210388102A1.

Each binder was assayed against His peptide-tagged soluble cynoADAM9 (cynoADAM9-His) (cynomolgus monkey) (assay: SPR (BIACORE), antibody captured, cynoADAM9-His in flow).

Row | Binder | Kd [nM] | koff [s⁻¹] | kon [M⁻¹ s⁻¹]
1 | hMAB-A (2.2) (antibody, human IgG1, kappa, V domains shown) VH: EVQLVESGGGLVKPGGSLRLSCAASGFTFSSYWMHWVRQAPGKGLEWVGEIIPIFGHTNYNEKFKSRFTISLDNSKNTLYLQMGSLRAEDTAVYYCARGGYYYYGSRDYFDYWGQGTTVTVSS VL: DIVMTQSPDSLAVSLGERATISCKASQSVDYSGDSYMNWYQQKPGQPPKLLIYAASDLESGIPARFSGSGSGTDFTLTISSLEPEDFATYYCQQSHEDPFTFGQGTKLEIKR | 110 | 0.022 | 200000
2 | hMAB-A (2C.2) (antibody, human IgG1, kappa, V domains shown) VH: EVQLVESGGGLVKPGGSLRLSCAASGFTFSSYWMHWVRQAPGKGLEWVGEIIPIFGHTNYNEKFKSRFTISLDNSKNTLYLQMGSLRAEDTAVYYCARGGYYYYPRFGWLDYWGQGTTVTVSS VL: DIVMTQSPDSLAVSLGERATISCKASQSVDYSGDSYMNWYQQKPGQPPKLLIYAASDLESGIPARFSGSGSGTDFTLTISSLEPEDFATYYCQQSHEDPFTFGQGTKLEIKR | < 0.3 | < 1e-05 | 350000
3 | hMAB-A (2D.2) (antibody, V domains shown) VH: EVQLVESGGGLVKPGGSLRLSCAASGFTFSSYWMHWVRQAPGKGLEWVGEIIPIFGHTNYNEKFKSRFTISLDNSKNTLYLQMGSLRAEDTAVYYCARGGYYYYTGKGVLDYWGQGTTVTVSS VL: DIVMTQSPDSLAVSLGERATISCKASQSVDYSGDSYMNWYQQKPGQPPKLLIYAASDLESGIPARFSGSGSGTDFTLTISSLEPEDFATYYCQQSHEDPFTFGQGTKLEIK | 0.7 | 0.0003 | 420000
4 | hMAB-A (2B.2) (antibody, V domains shown) VH: EVQLVESGGGLVKPGGSLRLSCAASGFTFSSYWMHWVRQAPGKGLEWVGEIIPIFGHTNYNEKFKSRFTISLDNSKNTLYLQMGSLRAEDTAVYYCARGGYYYYIGKGVLDYWGQGTTVTVSS VL: DIVMTQSPDSLAVSLGERATISCKASQSVDYSGDSYMNWYQQKPGQPPKLLIYAASDLESGIPARFSGSGSGTDFTLTISSLEPEDFATYYCQQSHEDPFTFGQGTKLEIK | 0.2 | 6.6e-05 | 340000
